In patent US20190389941A1 (GLIKNIK, published 2019):

Target: T1, G990 (Homo sapiens (Human), UniProt P0DOX5 218-449 = IgG part)
T1 construct: GL-2045 background (IgG1 hinge-CH2-CH3-IgG2 hinge) with G236R; homodimeric unit that multimerizes; also called stradomer G990
Assay: BLI (ForteBio Octet), His-tagged receptor on sensor tip; summary grade
Procedure: Binding of general stradomers or parent stradomer GL-2045 to FcγRI, FcγRIIb, FcγRIIIa, FcγRIIa, was assessed. RU values of dissociation were measured by biolayer interferometry using a ForteBio Octet instrument. His-tagged receptor proteins were bound to the sensor tip in 1X kinetic analysis buffer from ForteBio after which the on rate of the receptor/protein was measured by transferring the sensor tip to a 1x kinetics buffer containing the purified stradomer of choice. Off rate was measured by transferring the sensor tip to a 1X kinetics buffer, and RU value was calculated from the measured maximum binding using the ForteBio software. Biolayer interferometry detects the binding between a ligand immobilized on the biosensor tip surface and an analyte in solution. When binding occurs it produces an increase in optical thickness at the biosensor tip, which results in a wavelength shift (detected as a response unit of “RU”). The maximum binding level (RU max) is the maximum possible amount of sample binding at equilibrium that saturates the amount of ligand on the sensor surface. The RU 300 is the residual sample binding after 300 seconds of dissociation and is useful to characterize the rate of dissociation of the test article from the test ligand.

Binder | binding result
FcγRIIa (receptor, UniProt P12318 34-217, looked up, also called His-tagged receptor protein; CD32; not shown: His tag) QAAAPPKAVLKLEPPWINVLQEDSVTLTCQGARSPESDSIQWFHNGNLIPTHTQPSYRFKANNNDSGEYTCQTGQTSLSDPVHLTVLSEWLVLQTPHLEFQEGETIMLRCHSWKDKPLVKVTFFQNGKSQKFSHLDPTFSIPQANHSHSGDYHCTGNIGYTLFSSKPVTITVQVPSMGSSSPMG | no binding
FcγRIIb (receptor, UniProt P31994 43-217, looked up, also called His-tagged receptor protein; CD32; not shown: His tag) TPAAPPKAVLKLEPQWINVLQEDSVTLTCRGTHSPESDSIQWFHNGNLIPTHTQPSYRFKANNNDSGEYTCQTGQTSLSDPVHLTVLSEWLVLQTPHLEFQEGETIVLRCHSWKDKPLVKVTFFQNGKSKKFSRSDPNFSIPQANHSHSGDYHCTGNIGYTLYSSKPVTITVQAP | no binding
